Publication PMC11507940 (bioRxiv, 2024)

B1: SUMO-I3 (single domain antibody I3 fused to an N-terminal 6X His-SUMO-FLAG tag) (VHH)
VHH: EVQLVESGGGLVQPGGSLRLSCAASGFTFSSYAMSWVRQAPGKGLEWVSAINSGGGSTSYADSVKGRFTISRDNAKNTLYLQMNSLKPEDTAVYYCAKARTGWSLAVPSFGSWGQGTQVTVSS
B2: MBP-I3 (single domain antibody I3 with an N-terminal MBP fusion and a C-terminal 6X His-tag) (VHH)
VHH: B1 VHH

Tests used:
[1] = biological target: Human recombinant fibroblast activation protein alpha (human) (UniProt Q12884); experiment: cross-linking + other: mass photometry
[2] = biological target: Biotinylated dipeptidyl peptidase IV (Homo sapiens, UniProt P27487, biotin); experiment: BLI
Biotinylated dipeptidyl peptidase IV, sequence (P27487 39-766): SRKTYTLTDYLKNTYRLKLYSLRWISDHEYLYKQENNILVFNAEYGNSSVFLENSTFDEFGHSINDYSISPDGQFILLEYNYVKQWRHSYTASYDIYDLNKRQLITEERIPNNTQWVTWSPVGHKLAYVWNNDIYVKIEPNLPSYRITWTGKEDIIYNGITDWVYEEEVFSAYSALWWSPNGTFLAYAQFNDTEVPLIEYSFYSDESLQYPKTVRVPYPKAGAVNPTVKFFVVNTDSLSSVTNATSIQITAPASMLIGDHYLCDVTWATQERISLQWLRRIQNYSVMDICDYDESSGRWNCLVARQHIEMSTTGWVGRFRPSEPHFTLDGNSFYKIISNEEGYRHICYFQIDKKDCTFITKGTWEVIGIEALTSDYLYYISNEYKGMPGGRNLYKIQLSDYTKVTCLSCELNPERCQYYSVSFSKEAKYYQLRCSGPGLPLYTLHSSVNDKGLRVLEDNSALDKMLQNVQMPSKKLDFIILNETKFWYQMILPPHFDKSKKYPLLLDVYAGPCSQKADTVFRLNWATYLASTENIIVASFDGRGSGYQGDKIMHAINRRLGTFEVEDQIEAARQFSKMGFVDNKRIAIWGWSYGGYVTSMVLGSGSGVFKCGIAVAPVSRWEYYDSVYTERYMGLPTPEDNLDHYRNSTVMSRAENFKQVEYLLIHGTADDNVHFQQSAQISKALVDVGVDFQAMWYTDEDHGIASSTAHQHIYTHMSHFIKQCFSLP

Human recombinant fibroblast activation protein alpha (human), sequence (Q12884 39-757): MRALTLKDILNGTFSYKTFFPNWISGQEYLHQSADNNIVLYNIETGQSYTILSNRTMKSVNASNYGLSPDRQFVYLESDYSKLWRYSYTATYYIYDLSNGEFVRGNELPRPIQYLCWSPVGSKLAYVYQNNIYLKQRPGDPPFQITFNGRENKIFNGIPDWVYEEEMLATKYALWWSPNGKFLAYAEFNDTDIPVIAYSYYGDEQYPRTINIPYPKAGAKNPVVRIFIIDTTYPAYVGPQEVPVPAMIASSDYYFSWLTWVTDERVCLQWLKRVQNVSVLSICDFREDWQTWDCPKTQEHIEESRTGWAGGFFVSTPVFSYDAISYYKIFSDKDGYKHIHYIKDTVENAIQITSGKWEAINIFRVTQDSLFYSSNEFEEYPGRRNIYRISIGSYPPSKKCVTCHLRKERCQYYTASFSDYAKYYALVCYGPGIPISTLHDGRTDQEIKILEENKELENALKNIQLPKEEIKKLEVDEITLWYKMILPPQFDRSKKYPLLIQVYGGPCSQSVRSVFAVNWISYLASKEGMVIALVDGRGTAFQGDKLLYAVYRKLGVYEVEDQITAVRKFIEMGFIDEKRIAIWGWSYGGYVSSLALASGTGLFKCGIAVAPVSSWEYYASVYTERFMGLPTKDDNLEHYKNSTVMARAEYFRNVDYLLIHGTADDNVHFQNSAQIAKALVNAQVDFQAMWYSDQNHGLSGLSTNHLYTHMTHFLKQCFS

Binder	stoichiometry N [1]	binding result [2]
B1	1	
B2		no binding (tested: 10 μM)
